The DeepSol protein solubility set

assay: soluble on expression in E. coli; label from the status in PepcDB or PDB records

Soluble on expression in E. coli, not soluble:
MVLYVPTYREDKADNRAIDKAYFEKCLPGYTLINKLHPSIEDSDIDDVSSIDTSTLMLMSDIIISDYSSLPIEASLLDIPTIFYVYDEGTYDKVRGLNQFYKAIPDSYKVYTEEDLIMTIQEKEHLLSPLFKDWHKYNTDKSLHQLTEYIDKMVTK
MDYNKTAKDILKLLGGEKNVMSAAHCATRLRLVLKNEKEARTKEIEKLDGVKGVFSSSGQYQIIIGQGSVNKVYKAFVEGTGISESSLSDTKKAAMKNM
MGVKRKKMGKVAGFTEWTAEDLEAFRARWPIGTAQRLALELYQWTGARCVDVIRLGPQMVGRDGVLTYVQQKTGNPAHVPWTCPAFGLEEQRADLMRCLPVGSPVYMLTEYGKPRTQKGVSQWFSAAAREAGLESRTAHGLRKYRMNALAEHGASVLVMQSWVGHTTLLEVQEYTRRADRRRVISGGHAAALEHHHHHH
GPGSMPSITQETLRRRAEFVRTGGRGSVRRTVKVAHRNTGDDKKVQQVLKRLNVSPFNDVDDAVLYRHDGTAYYFEKPKVQASMQSQCFVVSGAYDVKEASEVPS
MPLTPADVHNVAFSKPPIGKRGYNEDEVDAFLDLVEQELSRLIEENADLRQRVGELDKELADAKKAPRSGSAAPTPAPKAEPARVVEQPKAPAPAPAPAAAAAAAPAQGADAHMQAAKVLGLAQEMADRLTSDAKTESEQLLGNARTNSEQLVSDARTRSETMIADARQKSEALITDAQTRSETQLRQAKEKADALQADAEKKHTEIMATINQQRSVLEGRIEQLKTFEREYRVRLKSYLESQLEELEQRGSAVPVDGGQDSFAQGGSQSNYSQSYAKGNS
MGHHHHHHSHPSSPDSLHYLSPTGVNEYLMALWSVGSVVQDYDSDKLFPAFGFGAQVPPDWQVSHEFALNFNPSNPYCAGIQGIVDAYRQALPQVRLYGPTNFAPIINHVARFAAQAAHQGTASQYFMLLLLTDGAVTDVEATREAVVRASNLPMSVIIVGVGGADFEAMEQLDADGGPLHTRSGQAAARDIVQFVPYRRFQNAPREALAQTVLAEVPTQLVSYFRAQGWAPLKPLPP
MDKNETRATIIRIGTDLISRQGFNATGIDAVLKEAGVPKGSFYYYFRSKEEFGLAVIDHFAERYDQRLDTFLNDEEVTPLNRIRNYLESALARLEQNQCSKGCLIGNLGQELADQHERFRGRLDEIFRSWKDRFAACLREAQRGGELAPELDAGVAAGFILSGLEGAILRTKVMKSPQPLRDFIEILFASVLRRQA
MGSDKIHHHHHHMPSIQELENFIIYGKVRNFTLAANQANITQSAFSFQMKKLEETLGVKLILRSNRGSSLTPEGEIFYKKISEILPELVGVIYEFQQINGEKAIELKVGVLTSLGDILMNQHVNYFQKNKNILITVYSMEKNELIRALNNGKIDIASTFLFDDETLENFEKSLFRKDKIVYYAPKIKEISGTIKRDNMLKVPLVKYPPDNFMNKMIDQYFNIERKMPTVAAKLPSPYAFIEYCKQDTAGAFITERLLNTLGFKYKQEYFNIDPPYEIKAFLLYKKENPKYSAIKIFTDYVVKLNQRDS
DSNLLLKLGMLTGRIVPDNQAVYAKDFKPESILGASNLSFRGNVNISEGQSADVVFLNADNGILVQDLPFEVKLKKFHIDFYNTGMPRDFASDIEVTDKATGEKLERTIRVNHPLTLHGITIYQASFADGGSDLTFKAWNLGDASREPVVLKATSIHQFPLEIGKHKYRLEFDQFTSMNVEDMSEGAEREKSLKSTLNDVRAVTQEGKKYTNIGPSIVYRIRDAAGQAVEYKNYMLPVLQEQDYFWITGTRSGLQQQYRWLRIPLDKQLKADTFMALREFLKDGEGRKRLVADATKGAPAEIREQFMLAAENTLNIFAQKGYLGLDEFITSNIPKEQQDKMQGYFYEMLYGVMNAALDETIRRYGLPEWQQDEARNRFLLHSMDAYTGLTEYPAPMLLQLDGFSEVRSSGLQMTRSP
MADGPDKKRRKLTSALKDAIGAHSQKPEENIEKPIALALISDNKAAQDLLNKIQASRRPQAILEATLKICKEKKSEAHVDEAFLSIFRKHFSILGVDSALACWKLIEEHLNSSESINEIRIANEFISTSNLLGHGFGKLLQNMKQGIPVVIQNTWRQERKADALALAYPFLSLLLADQVYGDHQNLESLAEFWKNQVLPEKSMKKDFGMRMVSALAGGEPGQLPETKIDENQLEMLSKIYENHLEFYTGILSESTCSQLLAKVIEDNLAKNELKQLARRCQTAEVCMSPCIYYAMISVLRSTFDLNDSELIFIENLKTLKLKEITKHLPSIINSCSNTRQITASKKLKNLENLQDFLHNVTEKPENDNFSAAFALLSINISLIFDNWNFCEKILKTLPKDVLEKLIKAGKGSENENILKVFKKVAQEAAPVKFVNRTAADVAEKLREPEFAVAEALSLLQGVHTAETKKEVFDSVVKFVEEIPGAESIDEMKLFKLIIEMYGGSQLESLAVQVVFSRIAADGWTEMDRAPGTEKSDESWFTVLVETIDLLDIAMKSAKNSVLKSFTALFCQLFSQVLKNSQKFVRNSLNAVASRTLSPEMETEFVLRRHKLSQDLARLVDAMKRNESYFAMLTASIIGDAVFYGSDSLLAMSKLHSLADKNASALLATNLPVVERTRYKKFLSTITRASKRIY
MGSDKIHHHHHHMLIISPKYLNGKIEIEKGERVGLVGKNGSGKTTLILSALCLDQTTSNVTVDDLDFCKEKDYSKISAVLQDVSSQILASTLKDEIELMKRFHSVDDKIARNLMGHYYEVEFNKLSDGYKKRYAIASVLASNPEYILLDEPFANLDDKGVKSVSTIVPKNSLIAEHRIEELRKLVDRVYMIRNNKEINEISKEKLFDIEFLRKEGLRGFSLPKINSELGNEILNVNIDNFTIKIREGEILCLLGRNGSGKTTILRKLSKKIFVIFQEVDLQFFYFTVREIVRSKRVLSLFKLENLADKSPYALSFGQKMRILIASAFSSDSRVIGLDEPSVGMDGEALLSFYEMVKMLKEQKRGLILATHDKDIISLCDTRIVID
MGSDKIHHHHHHMTPTLPDRKQNPPSAPAATVSLRLLEIFMLVAQEGSVSAAANRLNLTQAAVSQAITVLEQALDVKLLDRSVRPPLLTLRGSTALQYAREILAKVHEFEDAMRYSGSGRVPLLRIGMLNSFASTAGAFVLNQLRDIAAEWTVASGFRETCIQALLDRQSDVIITTDETPAPSEIEVFPIFSEPFVAVVPASFDGKTERLQDIADKLDFIHYGHDSHMGSKITNYLKKIGTVPARRYQFDTTDAALHMVAGGFGWAIVTPLIYLKSRVEGSGVRVVPLTRLPIHRTFIVGMRRGEGSDIAQRVRTAAIITLRDVILPQIEAVLPEASKGVSVAEIEPKASTGKRKGSRRDSAGS
MGSDKIHHHHHHMNYTQNQKISQITPSTLVIGIDVAKDKHVARAQDDRGLEFGKRLIFENRIHGFELLLEWALRHAKENSKDHIIFGVEPTGHYWLNLAYYLTAKDFDFVLVNPMHVKKSKELDDNSPTKNDTKDAKVISQLIKDGRYSVPNLLDGIYAELREGVKLRDQLIQQLLITEGRIQNIIDRYFPEFFDVFGDWEGKAAFCTLKLFPFPSQIVKMTPEEVLRQWKPFVQRGVGIKRATKLVETAHKSIGITIGSHFAQREMSSLLDQWELFKKQLEELDQELEGVVRTIPGANEMIDITGLGVATVTTVLSEIGDLKKYKHPQQLVNLAGLSLRENSSGKFKGQTTITKRGRSKLRRALYLAIRPLVAHNPTFKALHHYYTKRPDKPLKKQQSLIALCCKLLRVLFVIGQKQCPFDGSKLLQGIPQEKTLQAA
GPGSMQLDDWDTYRETLLYARELAVLLPSSWSELSSEQSATKSSSSLSHSSSLPSLAFVKRVEAPLLTQWMTAAAAAPVTCHCSSVGDSVEDMDYATAVVAARWTRMLGMWIVLRVELLCNTSGGVLTLAEEYEVGRYRQYFVPLAWPMLDRSIRERLAARLCALADKRRVSQPMGGTSCANDMAASSFCGTLLGKDEEDEQACDEVCTRAMEATQRVAREQLRISWDALHPSSIPATVGAKLKRLSAQQSRRHESETGSLPRPVVVHTNCLGGLLHALTSFRLRPQRQHADHGSAPLLTLTQNALLHIGYDLLTKVRSSVIERCYYLIPALLDYESCLLFCEAMLKESAALQAHEKELTRTQSILRLTLQSLLQSALGMYRHVIEALLVDYKKSACKSSASSTPRLVKVSAHLLPANPLVAQEAAQKQHASDAVVPSKPPTHPGAADGCSASAVMRLSEPAFSILVEVLEPTCDLLQRYPADWNVLWTRSLTGPDGRDQGATSGSHIAREGGLLSPSSRRQRLVSQQRQRSIAMDVRREVVSFLDAEVSNCFAAAAAGSGAASKKAQQQAAADAYLTATYLSAYGPHWL
MKKVLIVFGTRPEAIKMAPLVQQLCQDNRFVAKVCVTGQHREMLDQVLELFSITPDFDLNIMEPGQTLNGVTSKILLGMQQVLSSEQPDVVLVHGDTATTFAASLAAYYQQIPVGHVEAGLRTGNIYSPWPEEGNRKLTAALTQYHFAPTDTSRANLLQENYNAENIFVTGNTVIDALLAVREKIHTDMDLQATLESQFPMLDASKKLILVTGHRRESFGGGFERICQALITTAEQHPECQILYPVHLNPNVREPVNKLLKGVSNIVLIEPQQYLPFVYLMDRAHIILTDSGGIQEEAPSLGKPVLVMRETTERPEAVAAGTVKLVGTNQQQICDALSLLLTDPQAYQAMSQAHNPYGDGKACQRIADILAK

Soluble on expression in E. coli, soluble:
MANEIPTKGILKSEALKQYIMETSAYPREHELLKELRKATVQKYGNLSEMEVPVDEGHFLSMLVKIMNAKNTIEIGVFTGYSLLTTALALPEDGRITAIDIDKEAYEVGLEFIKKAGVDHKINFIHSDGLKALDQLVNDKCEFDFAFADADKSSYVNFHERLLKLVKVGGIIAFDNTLWFGFVAEDEDGVPEHMREYRAALIEFNKKLALDPRVEVSQISIGDGITLCRRLV
MHHHHHHSSGVDLGTENLYFQSMAWVIDKYGKNEVLRFTQNMMMPIIHYPNEVIVKVHAASVNPIDVNMRSGYGATALNMKRDPLHVKIKGEEFPLTLGRDVSGVVMECGLDVKYFKPGDEVWAAVPPWKQGTLSEFVVVSGNEVSHKPKSLTHTQAASLPYVALTAWSAINKVGGLNDKNCTGKRVLILGASGGVGTFAIQVMKAWDAHVTAVCSQDASELVRKLGADDVIDYKSGSVEEQLKSLKPFDFILDNVGGSTETWAPDFLKKWSGATYVTLVTPFLLNMDRLGIADGMLQTGVTVGSKALKHFWKGVHYRWAFFMASGPCLDDIAELVDAGKIRPVIEQTFPFSKVPEAFLKVERGHARGKTVINVV
SALKAEGAALDCFEVTLKCEEGEDEEEAMVVAVIPRPEPMLRVTQQEKTPPPRPSPLEAGSDGCEEPKQQVSWEQEFLVGSSPGGSGRALCMVCGAEIRAPSADTARSHILEQHPHTLDLSPSEKSNILEAWSEGVALLQDVRAEQPSPPNSDSGQDAHPDPDANPDAARMPAEIVVLLDSEDNPSLPKRSRPRGLRPLELPAVPATEPGNKKPRGQRWKEPPGEEPVRKKRGRPMTKNLDPDPEPPSPDSPTETFAAPAEVRHFTDGSFPAGFVLQLFSHTQLRGPDSKDSPKDREVAEGGLPRAESPSPAPPPGLRGTLDLQVIRVRMEEPPAVSLLQDWSRHPQGTKRVGAGDTSDWPTVLSESSTTVAGKPEKGNGV
MSLAQLIFDEEKVTSVIDRIVKRTFQMDFAWDWPGGVAFYGVAEAYEATENEEYINLLKTWVDEQLEDGLPPLSINGVSIGHTLLFLHKVTGDDVYLETAAEMAEYVLHKAPRFGEGILQHTVNAAEYVFPEQAWADTLMMAGLFMLRIGRVMEREDYFEDGLRQFHGHEDVLQDPVTNLYYHAWDNKAQNHLSGIYWGRANGWAALTMAKALPLIEVTHPSFMIIDGSLRDQLSALVRLQDESGLWHTILDDPDSYLEVSASAGIASALMSSGKLYTKYVQKSLAAILDAVEEDGRVSRVSAGTAVMKNAEGYKQVPYKRIQGWGQGLALTFLADVLKTKKRLYQEGHHHHHH
